In patent CN117736312A (SHANGHAI BOVAX BIOLOGICAL SCIENCE & TECH CO LTD, dated 2024):

Assays:
Experiment in all cases: sandwich ELISA (rabbit anti-L1 capture)
[1] = biological target: T1, HPV35L1 (human papillomavirus type 35, UniProt P27232 1-502)
T1 sequence: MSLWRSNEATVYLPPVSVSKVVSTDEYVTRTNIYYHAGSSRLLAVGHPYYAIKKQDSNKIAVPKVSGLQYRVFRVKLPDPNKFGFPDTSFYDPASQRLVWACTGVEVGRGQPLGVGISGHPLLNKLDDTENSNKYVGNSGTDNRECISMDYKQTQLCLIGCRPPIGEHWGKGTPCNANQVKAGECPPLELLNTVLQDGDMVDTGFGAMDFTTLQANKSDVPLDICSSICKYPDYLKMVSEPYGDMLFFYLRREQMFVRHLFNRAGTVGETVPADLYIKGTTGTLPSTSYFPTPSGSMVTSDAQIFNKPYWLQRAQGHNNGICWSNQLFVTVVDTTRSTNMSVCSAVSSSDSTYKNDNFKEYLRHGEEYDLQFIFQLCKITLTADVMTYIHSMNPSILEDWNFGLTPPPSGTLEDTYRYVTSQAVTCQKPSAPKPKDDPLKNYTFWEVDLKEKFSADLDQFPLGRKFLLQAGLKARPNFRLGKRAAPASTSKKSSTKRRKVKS

[2] = biological target: T2, HPV45L1 (human papillomavirus type 45, UniProt P36741 30-539)
T2 sequence: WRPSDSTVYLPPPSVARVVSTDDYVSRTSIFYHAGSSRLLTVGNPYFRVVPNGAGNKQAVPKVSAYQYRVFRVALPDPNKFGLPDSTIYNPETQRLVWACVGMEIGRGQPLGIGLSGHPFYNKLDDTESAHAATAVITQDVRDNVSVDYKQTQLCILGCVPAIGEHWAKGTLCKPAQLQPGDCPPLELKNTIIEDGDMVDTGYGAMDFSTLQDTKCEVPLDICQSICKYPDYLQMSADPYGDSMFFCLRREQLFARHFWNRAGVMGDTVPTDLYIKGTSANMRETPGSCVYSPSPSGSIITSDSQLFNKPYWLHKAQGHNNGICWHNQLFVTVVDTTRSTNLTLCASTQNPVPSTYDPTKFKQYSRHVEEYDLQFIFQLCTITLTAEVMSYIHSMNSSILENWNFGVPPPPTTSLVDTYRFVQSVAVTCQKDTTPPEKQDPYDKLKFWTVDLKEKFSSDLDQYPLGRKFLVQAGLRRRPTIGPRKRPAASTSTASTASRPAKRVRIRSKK

[3] = biological target: T3, HPV39L1 (human papillomavirus type 39, UniProt P24838 1-505)
T3 sequence: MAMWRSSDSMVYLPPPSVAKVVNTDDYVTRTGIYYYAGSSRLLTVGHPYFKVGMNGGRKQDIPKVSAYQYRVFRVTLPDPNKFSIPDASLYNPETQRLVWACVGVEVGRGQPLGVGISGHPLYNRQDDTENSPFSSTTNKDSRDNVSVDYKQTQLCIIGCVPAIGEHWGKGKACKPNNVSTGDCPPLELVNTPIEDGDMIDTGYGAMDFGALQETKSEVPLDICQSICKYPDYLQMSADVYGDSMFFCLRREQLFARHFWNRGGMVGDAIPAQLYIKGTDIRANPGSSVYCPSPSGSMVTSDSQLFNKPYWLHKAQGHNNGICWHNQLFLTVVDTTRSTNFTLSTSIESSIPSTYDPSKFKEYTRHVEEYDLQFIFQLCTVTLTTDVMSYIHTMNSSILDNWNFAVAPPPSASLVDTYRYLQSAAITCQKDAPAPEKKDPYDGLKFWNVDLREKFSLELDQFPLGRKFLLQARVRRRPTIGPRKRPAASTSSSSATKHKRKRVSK

[4] = biological target: T4, HPV16L1 (human papillomavirus type 16, UniProt P03101 1-505)
T4 sequence: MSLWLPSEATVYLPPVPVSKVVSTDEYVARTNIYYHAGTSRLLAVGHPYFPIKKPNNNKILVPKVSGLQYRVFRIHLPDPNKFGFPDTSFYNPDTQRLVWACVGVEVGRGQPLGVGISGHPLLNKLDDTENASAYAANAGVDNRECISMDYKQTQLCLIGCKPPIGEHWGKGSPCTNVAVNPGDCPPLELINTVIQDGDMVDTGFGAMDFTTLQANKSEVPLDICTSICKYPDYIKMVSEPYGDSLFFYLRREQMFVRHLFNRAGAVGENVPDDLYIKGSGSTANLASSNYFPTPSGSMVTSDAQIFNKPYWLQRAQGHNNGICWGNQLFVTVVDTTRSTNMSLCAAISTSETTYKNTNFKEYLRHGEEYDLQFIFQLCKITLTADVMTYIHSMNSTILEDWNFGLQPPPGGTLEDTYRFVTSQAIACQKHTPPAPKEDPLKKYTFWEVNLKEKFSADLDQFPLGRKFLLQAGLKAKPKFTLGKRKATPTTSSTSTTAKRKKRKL

[5] = biological target: T5, HPV33L1 (human papillomavirus type 33, UniProt P06416 1-499)
T5 sequence: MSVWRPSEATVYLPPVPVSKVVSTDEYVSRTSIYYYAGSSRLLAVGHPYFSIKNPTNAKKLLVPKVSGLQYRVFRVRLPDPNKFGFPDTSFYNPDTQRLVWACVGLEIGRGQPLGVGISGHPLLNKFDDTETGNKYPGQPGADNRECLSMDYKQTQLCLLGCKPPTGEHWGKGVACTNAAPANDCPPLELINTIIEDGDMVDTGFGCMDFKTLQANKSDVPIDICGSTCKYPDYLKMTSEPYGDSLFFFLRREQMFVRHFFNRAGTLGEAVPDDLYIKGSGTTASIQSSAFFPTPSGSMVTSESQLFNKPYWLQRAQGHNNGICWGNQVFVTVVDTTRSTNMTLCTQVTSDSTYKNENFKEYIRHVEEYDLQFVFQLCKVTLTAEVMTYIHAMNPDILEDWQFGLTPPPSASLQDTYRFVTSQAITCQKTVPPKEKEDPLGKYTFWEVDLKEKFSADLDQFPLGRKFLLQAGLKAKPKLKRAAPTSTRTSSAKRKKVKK

B1: HPV 59编号为30单克隆抗体 (antibody, V domains shown)
VH: QIQLVQSGPELKKPGETVKISCKASGYTFTDYSMHWVKQAPGKGLKWMGWINTETGEPTYADDFKGRFAFSLETSASTAYLQINNLKIEDTATYFCTRDGYVWYFDVWGAGTTVTVSS
VL: QIVLSQSPAILSASPGEKVTMTCRASSSVNYMHWYQQKPGSSPKPWIYATSNLASGVPARFSGSGSGTSYSLTISRVEAEDAATYYCQQWSSNPIFTFGSGTKLEIK
notes: Mouse hybridoma antibody tested as cell supernatant; also called 59H30
Q: Does B1 bind [1]?
A: Result: no binding (tested: 原液40μg/ml; 细胞上清1:100)

Q: Does B1 bind [2]?
A: Result: no binding (tested: 原液40μg/ml; 细胞上清1:100)

Q: Does B1 bind [3]?
A: Result: no binding (tested: 原液40μg/ml; 细胞上清1:100)

Q: Does B1 bind [4]?
A: Result: no binding (tested: 原液40μg/ml; 细胞上清1:100)

Q: Does B1 bind [5]?
A: Result: no binding (tested: 原液40μg/ml; 细胞上清1:100)
